Numbering of substitutions follows the chain as printed.
T1: glycoprotein of rabies virus strain CVS-11 (rabies virus strain CVS-11, UniProt O92284 20-524)
T1 sequence: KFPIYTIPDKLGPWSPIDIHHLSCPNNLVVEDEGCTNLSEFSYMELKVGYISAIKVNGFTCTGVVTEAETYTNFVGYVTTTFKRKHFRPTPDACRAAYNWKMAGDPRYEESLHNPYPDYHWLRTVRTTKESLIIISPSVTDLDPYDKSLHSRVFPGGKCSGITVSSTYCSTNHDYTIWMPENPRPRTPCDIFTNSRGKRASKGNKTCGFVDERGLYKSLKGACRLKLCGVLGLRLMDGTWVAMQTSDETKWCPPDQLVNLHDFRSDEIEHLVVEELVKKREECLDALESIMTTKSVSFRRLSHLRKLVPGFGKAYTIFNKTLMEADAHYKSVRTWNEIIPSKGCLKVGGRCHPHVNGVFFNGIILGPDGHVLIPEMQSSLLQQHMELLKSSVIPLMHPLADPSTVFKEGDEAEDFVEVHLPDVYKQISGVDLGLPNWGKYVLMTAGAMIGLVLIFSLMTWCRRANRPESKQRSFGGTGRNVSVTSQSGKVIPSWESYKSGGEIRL

B1: SC04-060 (scFv)
scFv: AMAQVQLVESGPGLVKASETLSLTCTVSDGSISSFYWSWIRQPPGKGLEWVGEIQDTGRTNYNPSLKSRVTISLDTSKNQFSLTLSSVTAADTAVYYCAREKEKYSDRSGYSYYYYYMDVWGKGTTVTVSSGTGGSGGTGSGTGGSTDIQMTQSPSSLSASVGDRVTITCRASQGISTYLNWYQQKPGKAPNLLIYGASNLQSGVPSRFSGSESGTDFTLTISSLQPEDFATYYCQQSFTTPRTFGQGTKLEIKRAAA
B2: SC04-001 (scFv)
scFv: AMAEVQLVESGGGVVRPGGSLRLSCAASGFTFDDYGMSWVRQAPGKGLEWVSGINWNGGSTGYADSVKGRFTISRDNAKNSLYLQMNSLRAEDTAVYYCAKGLYGELFDYWGQGTLVTVSRGGGGSGGGGSGGGGSSELTQDPAVSVALGQTVRITCQGDSLRSYYASWYQQKPGQAPVLVIYGKNNRPSGIPDRFSGSSSGNTASLTITGAQAEDEADYYCNSRDSSGNHVVFGGGTKLTVLGAAA
B3: SC04-008 (scFv)
scFv: AMAQVTLKESGPTLVKPTQTLTLTCTFSGFSLSTSGVGVGWIRQPPGKALEWLARIDWDDDKYYSTSLKTRLTISKDTSKNQVVLTMTNMDPVDTATYYCARMGFTGTYFDYWGQGTLVTVSSGTGGSGGTGSGTGGSTQAVLTQPSSVSVAPGETASVTCGGDNIGSKSVHWYQKKPGQAPVLVVFDDSDRPSGIPERFSGSTSGNTAALTISRVEAGDEADYYCQVWDSSNDHLYVFGPGTQLTVLSAAA
B4: SC04-104 (scFv)
scFv: AMAQVQLQESGGGVVQPGRSLRLSCAASGFTFSSYGMHWVRQAPGKGLEWVATISYDGNVKDYADSVKGRFTISRDNSKNTLYLQMNSLRTEDTAVYYCAKIVVVTALDAFDIWGQGTMVTVSSGTGGSGGTGSGTGGSTDIQLTQSPSTLSASVGDRVTITCRASQILGHWLPLSWYQQKPGKAPKLLISKASSLESGVPPRFSGSGSGSDFTLTISSLQPDDFATYYCLQYHEYPLTFGGGTKLEIKRAAA
B5: SC04-010 (scFv)
scFv: AMAQVQLVQSGGDLVQPGRSLRLSCAASGFTFSSYGMHWVRQAPGKGLEWVADISYDGSNKYYADSVKGRFTISRDNSKNTLYLQMNSLRAEDTAVYYCAKDGLDLTGTIQPFGYWGQGTLVTVSSGTGGSGGTGSGTGGSTDIQMTQSPSSLSASVGDRVTITCRASQGIRNDLGWYQQKPGKAPKLLIYAASSLQSGVPSRFSGSGSGTDFTLTISSLQPEDFATYYCLQDYNYPRTFGQGTKVEIKRAAA
B6: SC04-073 (scFv)
scFv: AMAQVQLVQSGGGVAQPGRSLRLSCAASGFTFSSYGMHWVRQAPGKGLEWVADISYDGSNKYYADSVKGRFTISRDNSKNTLYLQMNSLRAEDTAVYYCAKDGLDLTGTIQPFGYWGQGTLVTVSSGTGGSGGTGSGTGGSTDIQLTQSPSFLSASVGDRVTITCRASHSISSWLAWYQQKPGKAPKLLIYKASSLESGVPSRFSGSGSGTDFTLTISSLQPEDFATYYCLQDYNYPRTFGQGTKLEIKRAAA
B7: SC04-103 (scFv)
scFv: AMAQVQLQESGGGVVQPGRSLRLSCAASGFTFSSYGMHWVRQAPGKGLEWVAVILYDGSDKYYADSVKGRFTISRDNSKNTLYLQMNSLRAEDTAVYYCAKVAVAGESFDSWGRGTLVTVSSGTGGSGGTGSGTGGSTDIQLTQSPSSVSASVGDRVTITCRASQGISSWLAWYQQKPGKAPRSLIYDASSLQSGVPSRFSGSGSGTDFTLTISSLQPEDFATYYCQQADSFPITFGQGTRLEIKRAAA
B8: SC04-018 (scFv)
scFv: AMAEVQLVESGPGLVRPSGTLSLTCAVSGGSISSSNWWSWVRQPPGKGLEWIGEIYHSGSTNYNPSLKSRVTISVDKSKNQFSLKLSSVTAADTAVYYCARVSVTTGAFNIWGQGTMVTVSSGTGGSGGTGSGTGGSTQPVLTQPLSASGTPGQRVTISCSGDTSNIGSNTVHWYQRLPGTAPKLLIHNNNQRPSGVPDRFSGAKSGTSASLAISGLQSEDEADYFCAAWDDNLNGYVFGTGTKVTVLGAAA
B9: SC04-098 (scFv)
scFv: AMAEVQLVQSGGGAVQPGRSLRLSCAASGFTFSSYGMHWVRQAPGKGLEWVAVILYDGSDKFYADSVKGRFTISRDNSKNTLYLQMNSLRAEDTAVYYCAKVAVAGTHFDYWGQGTLVTVSSGTGGSGGTGSGTGGSTDIQMTQSPSSLSASVGDRVTITCRASQGIRNDLGWYQQKPGKAPKLLIYAASSLQSGVPSRFSGSGSGTDFTLTISSLQPEDFATYYCQQLNSYPPTFGGGTKVEIKRAAA
B10: SC04-026 (scFv)
scFv: AMAEVQLVESGAEVKKPGESLKISCKGSGYNFPYSWIAWVRQMPGKGLEWMGIIFPGDSDTRYSPPFQGQVTISADNSKSTAYLQWSSLKASDTAMYYCARTSNWNYLDRFDPWGQGTLVTVSSGTGGSGGTGSGTGGSTDVVMTQSPLSLPVTPGEPASISCRSSQSLLHSNGHDYLDWYVQKPGQSPQPLIYLGSDRASGVPDRFSGSGSGTHFTLNISRVEAEDVGVYYCMQSLQTPWTFGQGTKLEIKRAAA
B11: SC04-097 (scFv)
scFv: AMAEVQLVQSGGHLVQPGGSLRLSCAASGFTFSSYAMSWVRQAPGKGLEWVSLIIGSGRSTYYADSVKGRFTISRDNSKNTLYLQMNSLRAEDTAVYYCAKTASNLGRGGMDVWGQGTTVTVSSGTGGSGGTGSGTGGSTDIQLTQSPSSLSASVGDRVTITCRASQGISSHLAWYQQKPGKAPKLLIYAASSLQSGVPSRFSGSGSGTEFTLTISSLQPEDFATYYCQQFNSYPITFGQGTRLEIKRAAA
B12: SC04-164 (scFv)
scFv: AMAEVQLVESGGGVVQPGRSLRLSCAASGFTFSSYGMHWVRQAPGKGLEWVAVISYDGSSKYYADSVKGRFTISRDNSKNTLYLQMNSLRAEDTAVYYCAKGSVLGDAFDIWGQGTMVTVSSGTGGSGGTGSGTGGSTDIQLTQSPSSVSASVGDRVTITCRASQGISSWLAWYQQKPGKAPKLLIYAASSLQSGVPSRFSGSGSGTDFTLTISSLQPEDFATYYCQQANSFPLTFGGGTKVDIKRAAA
B13: SC04-038 (scFv)
scFv: B12 scFv with E4Q, E9Q, S169G, G179E, S194R, L234P, G238Q, K241R, V242L, D243E
B14: SC04-031 (scFv)
scFv: B12 scFv with S60N, L142M, S148F, D243E
B15: SC04-040 (scFv)
scFv: AMAQVQLVQSGGGVVQPGRSLRLSCAASGFTFGSYGMHWVRQAPGKGLEWVATIFYDGSYKDYADSVKGRFTISRDNSKNTLYLQMNSLRAEDTAVYYCAKGSKVGDFDYWGQGTLVTVSSGTGGSGGTGSGTGGSTQPVLTQPPSVSVAPGQTARISCGGDNIGTNTVQWYQQKPGQAPVLVVYDDSDRPSGIPERFSGSNSGDTATLTISRVEAGDEADYYCQVWDDSSDLVVFGGGTKVTVLGAAA
B16: SC04-021 (scFv)
scFv: AMAEVQLVESGGGVVQPGRSLRLSCAASGFTFSSYGMHWVRQAPGKGLEWVAVISYDGSSKYYADSVKGRFTISRDNSKNTLYLQMNSLRAEDTAVYYCAKGSVLGDAFDIWGQGTMVTVSSGTGGSGGTGSGTGGSTDIQMTQSPFSLSASVGDRVTITCRASQGIGSSLAWYQQKPGKAPKLLIYAASSLQSGVPSRFSGSGSGTDFTLTISSLQPEDFATYFCLQHHDYPLTFGGGTKLEIKRAAA
B17: scFv SO57 (scFv)
scFv: AMAQVQLVQSGAEVKKPGSSVKVSCKASGGTFNRYTVNWVRQAPGQGLEWMGGIIPIFGTANYAQRFQGRLTITADESTSTAYMELSSLRSDDTAVYFCARENLDNSGTYYYFSGWFDPWGQGTLVTVSSGTGGSGGTGSGTGGSTQSALTQPRSVSGSPGQSVTISCTGTSSDIGGYNFVSWYQQHPGKAPKLMIYDATKRPSGVPDRFSGSKSGNTASLTISGLQAEDEADYYCCSYAGDYTPGVVFGGGTKLTVLGAAA

molecular target: T1, glycoprotein of rabies virus strain …; experiment: cell-based or functional assay

| Binder | Potency (IU/ml) |
| --- | --- |
| B1 | 0.2 |
| B2 | 1.3 |
| B3 | > 54 |
| B4 | 1 |
| B5 | 4 |
| B6 | 3 |
| B7 | 0.3 |
| B8 | 0.1 |
| B9 | 9 |
| B10 | 0.3 |
| B11 | 0.2 |
| B12 | 0.3 |
| B13 | 2 |
| B14 | 0.7 |
| B15 | 0.3 |
| B16 | 1.3 |

molecular target: purified rabies virus glycoprotein (rabies virus ERA strain) (rabies virus strain ERA, UniProt P03524 20-524); experiment: phage ELISA on coated purified G protein (ERA), anti-M13-HRP

| Binder | OD 492 nm [OD 492 nm] |
| --- | --- |
| B1 | 0.923 |
| B2 | 0.828 |
| B3 | 0.582 |
| B4 | 0.566 |
| B5 | 0.915 |
| B6 | 0.657 |
| B7 | 0.606 |
| B8 | 0.247 |
| B9 | 0.798 |
| B10 | 0.212 |
| B11 | 0.835 |
| B12 | 0.547 |
| B13 | 0.653 |
| B14 | 0.721 |
| B15 | 0.74 |
| B16 | 0.278 |
| B17 | 0.65 |

Source: patent US20070072177A1 (CRUCELL HOLLAND B V, published 2007)
